# According to patent US20240336665A1 (ACROIMMUNE GUANGZHOU BIOTECH, published 2024):
# T1: Siglec10-mIgG2aFc fusion protein (AcroBiosystems, SI0-H525b, HEK293 cell derived) (human, UniProt Q96LC7 17-546)
# T1 construct: Bought reagent; also called recombinant human Siglec-10-mIgGFc protein; not shown: mouse IgG2a Fc
# T1 sequence (looked up): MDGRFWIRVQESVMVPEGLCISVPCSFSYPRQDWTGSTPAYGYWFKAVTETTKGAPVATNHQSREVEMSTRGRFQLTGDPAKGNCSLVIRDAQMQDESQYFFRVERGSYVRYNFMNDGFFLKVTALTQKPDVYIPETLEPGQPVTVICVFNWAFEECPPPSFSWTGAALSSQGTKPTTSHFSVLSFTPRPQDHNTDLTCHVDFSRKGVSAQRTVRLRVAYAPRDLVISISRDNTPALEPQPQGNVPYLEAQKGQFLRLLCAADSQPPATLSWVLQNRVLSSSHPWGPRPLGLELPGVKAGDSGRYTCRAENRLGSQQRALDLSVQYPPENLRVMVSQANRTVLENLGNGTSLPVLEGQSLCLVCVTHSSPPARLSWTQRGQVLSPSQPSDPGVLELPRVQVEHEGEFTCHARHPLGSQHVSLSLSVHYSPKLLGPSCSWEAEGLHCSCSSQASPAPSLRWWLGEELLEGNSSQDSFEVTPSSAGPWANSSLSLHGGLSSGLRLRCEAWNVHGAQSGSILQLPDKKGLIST
# B1: HMGB1-His tag protein (AcroBiosystems, HM1-H5220, HEK293 cell derived) (other, human, UniProt P09429 1-215, looked up)
# chain: MGKGDPKKPRGKMSSYAFFVQTCREEHKKKHPDASVNFSEFSKKCSERWKTMSAKEKGKFEDMAKADKARYEREMKTYIPPKGETKKKFKDPNAPKRPPSAFFLFCSEYRPKIKGEHPGLSIGDVAKKLGEMWNNTAADDKQPYEKKAAKLKEKYEKDIAAYRAKGKPDAAKKGVVKAEKSKKKKEEEEDEEDEEDEEEEEDEEDEDEEEDDDDE
# notes: Bought reagent; also called recombinant human HMGB1-His tag protein; High Mobility Group Box 1; not shown: His tag
# B2: CD24Fc fusion protein (Fc fusion, UniProt P25063 27-56, looked up)
# chain: SETTTGTSSNSSQSTSNSGLAPNPTNATTK
# notes: Comparator protein; also called CD24Fc protein; not shown: Fc detected by anti-human IgG-Fc antibody
# How the values were obtained:
# [1] = molecular target: T2, human IgG1-Fc control protein (human, UniProt P01857-1 100-330 = IgG part, limits assumed); test: protein A bead pull-down, SDS-PAGE with Coomassie staining
# T2 construct: domain: Fc; Control in the pull-down assay; also called human IgG-Fc control
# Method: FIGS. 8A-8B illustrate the association of AI-072 protein with human HMGB1 in a pull-down assay. Recombinant HMGB1-His protein sample was incubated with AI-072, human IgG-Fc control, or none for 5 min, then add protein A-conjugated beads to the mixture to capture (or pull-down) the bound proteins. The captured proteins were then separated in an SDS-PAGE gel and visualized by Coomassie Brilliant Blue dye staining. […] As indicated on the top of each gel, lane 1 represents the sample containing HMGB1 only, lane 2 represents the sample containing HMGB1 and human IgG-Fc, and lane 3 represents the sample containing HMGB1 and AI-072, lane M is the protein molecule weight marker sample.
# In-brief, 8 μL of 500 μg/mL HMGB1-His protein was mixed with either about 3 μg AI-072 or human IgG1-Fc control protein or none, and set at room temp for 5 min. The mixtures were then incubated with protein A-conjugated beads to capture (or pull-down) the bound proteins. The captured proteins were separated in an SDS-PAGE gel and visualized by Coomassie Brilliant Blue dye staining.
# [2] = molecular target: T1, Siglec10-mIgG2aFc fusion protein …; test: ELISA, Siglec10-mIgG2aFc coated, detection by anti-human IgG-Fc-HRP
# Method: In-brief, 96-well plates were coated (100 μL per well) with 0.2 μg/mL of Siglec10-mIgG2aFc fusion protein (AcroBiosystems, SI0-H525b, HEK293 cell derived) at 4° C. overnight. After blocking with SuperBlock (Thermo, 37515) at room temperature for 1 hour, 100 μL of 2-fold serial dilutions of either AI-072 or CD24Fc (all starting at 1.5 mg/ml) were added. The bound AI-072 or CD24Fc protein was then detected by HRP-labeled goat anti-human IgG-Fc antibody (1:5000, Invitrogen, A18829) followed by the addition of Tetramethylbenzidin (TMB) substrate. After a color development at room temp for 15 min, 2N HCl stop solution was added into the plate. The OD values at a wavelength of 450 nm (OD 450 nm) in each well were then measured.
# [3] = molecular target: B1; test: ELISA, HMGB1-His coated, detection by anti-human IgG-Fc-HRP
# Method: In-brief, 96-well plates were coated (100 μL per well) with 0.1 μg/mL HMGB1-His tag protein (AcroBiosystems, HM1-H5220, HEK293 cell derived) at 4° C. overnight. After blocking with SuperBlock (Thermo, 37515) at room temperature for 1 hour, 100 μL of 2-fold serial dilutions of AI-72 or CD24Fc (all starting at 1.5 mg/ml, and diluted in PBST-1% BSA solution containing 1 mM MgCl2 and 1 mM CaCl2) were added. The bound AI-072 or CD24Fc protein was then detected by adding HRP-labeled goat anti-human IgG-Fc antibody (1:1000, Invitrogen, A18829), followed by the addition of tetramethylbenzidin (TMB) substrate. After a color development at room temp for 15 mins, 2N HCl stop solution was then added into the plate. The OD values at a wavelength of 450 nm in each well were then measured.
binding result [1],EC50 [2] [µM],EC50 [3] [µM],Binder
no binding (tested: about 3 ug),,,B1
,2.85,51,B2
